Test results published in patent publication US20220387578A1.
Where two headings read alike, the source gives them in different places.

Tests used:
[1] = target: H1 HA A/Solomon Islands/03/2006 (H1N1), recombinant soluble trimer (influenza A virus); assay: BLI, biotinylated HA on streptavidin sensor
[2] = target: H3 HA A/Victoria/3/1975 (H3N2) (influenza A virus); assay: BLI, biotinylated HA on streptavidin sensor
[3] = target: H5 HA A/Vietnam/1203/2004 (H5N1), recombinant (influenza A virus); assay: BLI, biotinylated HA on streptavidin sensor
[4] = target: H5 HA A/Indonesia/05/2005 (H5N1), recombinant (influenza A virus); assay: BLI, biotinylated HA on streptavidin sensor
[5] = target: H3 HA A/Victoria/361/2011 (H3N2) (influenza A virus); assay: BLI, biotinylated HA on streptavidin sensor
[6] = target: A/Duck/Czechoslovakia/1956 (Influenza A virus); assay: ELISA on coated recombinant HA; row printed A/Duck/Czechoslovakia/1958
[7] = target: H1 HA A/Texas/36/1991 (H1N1), recombinant soluble trimer (influenza A virus); assay: ELISA on coated recombinant HA; row printed A/Texas/38/1991
[8] = target: H12 HA A/duck/Alberta/60/1976, recombinant (influenza A virus); assay: ELISA on coated recombinant HA
[9] = target: H14 HA A/mallard duck/Astrakhan/263/1982, recombinant (influenza A virus); assay: ELISA on coated recombinant HA
[10] = target: H1 HA A/Solomon Islands/03/2006 (H1N1), recombinant soluble trimer (influenza A virus); assay: ELISA on coated recombinant HA
[11] = target: H15 HA A/shearwater/Western Australia/2576/1979, recombinant (influenza A virus); assay: ELISA on coated recombinant HA
[12] = target: H1 HA A/Texas/36/1991 (H1N1), recombinant soluble trimer (influenza A virus); assay: ELISA on coated recombinant HA
[13] = target: A/Duck/Czechoslovakia/1956 (Influenza A virus); assay: ELISA on coated recombinant HA
[14] = target: A/Turkey/Wisconsin/1/1966 (Influenza A virus); assay: ELISA on coated recombinant HA
[15] = target: A/Taiwan/2/2013 (Influenza A virus); assay: ELISA on coated recombinant HA
[16] = target: H5 HA A/Vietnam/1203/2004 (H5N1), recombinant (influenza A virus); assay: ELISA on coated recombinant HA
[17] = target: A/California/07/2004 (Influenza A virus); assay: ELISA on coated recombinant HA
[18] = target: H7 HA A/Shanghai/2/2013 (H7N9), recombinant uncleaved trimer (influenza A virus); assay: ELISA on coated recombinant HA
[19] = target: H5 HA A/Indonesia/05/2005 (H5N1), recombinant (influenza A virus); assay: ELISA on coated recombinant HA
[20] = target: A/Chicken/Germany/N/1949 (Influenza A virus); assay: ELISA on coated recombinant HA
[21] = target: H3 HA A/Texas/50/2012, recombinant soluble trimer (influenza A virus); assay: ELISA on coated recombinant HA
[22] = target: H2 HA A/Singapore/1/1957, recombinant soluble trimer (influenza A virus); assay: ELISA on coated recombinant HA
[23] = target: A/Fort Monmouth/1/1947 (Influenza A virus); assay: ELISA on coated recombinant HA
[24] = target: H3 HA A/Switzerland/9715293/2013, recombinant soluble trimer (influenza A virus); assay: ELISA
[25] = target: H14 HA A/mallard duck/Astrakhan/263/1982, recombinant (influenza A virus); assay: ELISA
[26] = target: H1 HA A/Solomon Islands/03/2006 (H1N1), recombinant soluble trimer (influenza A virus); assay: ELISA
[27] = target: H13 HA A/gull/Maryland/704/1977, recombinant (influenza A virus); assay: ELISA
[28] = target: H7 HA A/New York/107/2003, recombinant (influenza A virus); assay: ELISA
[29] = target: H1 HA A/Texas/36/1991 (H1N1), recombinant soluble trimer (influenza A virus); assay: ELISA
[30] = target: H16 HA A/black-headed gull/Sweden/4/1999, recombinant (influenza A virus); assay: ELISA
[31] = target: H3 HA A/Minnesota/11/10, recombinant soluble trimer (influenza A virus); assay: ELISA
[32] = target: H9 HA A/Hong Kong/1073/99, recombinant (influenza A virus); assay: ELISA
[33] = target: H5 HA A/Vietnam/1203/2004 (H5N1), recombinant (influenza A virus); assay: ELISA
[34] = target: H7 HA A/Shanghai/2/2013 (H7N9), recombinant uncleaved trimer (influenza A virus); assay: ELISA
[35] = target: H5 HA A/Indonesia/05/2005 (H5N1), recombinant (influenza A virus); assay: ELISA
[36] = target: H3 HA A/Texas/50/2012, recombinant soluble trimer (influenza A virus); assay: ELISA
[37] = target: H2 HA A/Singapore/1/1957, recombinant soluble trimer (influenza A virus); assay: ELISA
[38] = target: purified HA protein of H1N1 A/California/07/2009 (Sino Biological 11085-V08B) (influenza A virus); assay: cell-based or functional assay
[39] = target: H7 HA A/New York/107/2003, recombinant (influenza A virus)
[40] = target: A/Hong Kong/125/2017 (Influenza A virus); assay: ELISA on coated recombinant HA
[41] = target: A/Yokohama/110/2019 (Influenza A virus); assay: ELISA on coated recombinant HA
[42] = target: A/Turkey/Ontario/6118/1967 (Influenza A virus); assay: ELISA on coated recombinant HA
[43] = target: A/Puerto Rico/8/1934 (Influenza A virus); assay: ELISA on coated recombinant HA
[44] = target: A/Taiwan/2/2013 (Influenza A virus); assay: ELISA on coated recombinant HA; remark: listed apart in the source
[45] = target: H5 HA A/Vietnam/1203/2004 (H5N1), recombinant (influenza A virus); assay: ELISA on coated recombinant HA; remark: listed apart in the source
[46] = target: H5 HA A/Indonesia/05/2005 (H5N1), recombinant (influenza A virus); assay: ELISA on coated recombinant HA; remark: listed apart in the source
[47] = target: A/Tennessee/3/2019 (Influenza A virus); assay: ELISA on coated recombinant HA
[48] = target: H3 HA A/Texas/50/2012, recombinant soluble trimer (influenza A virus); assay: ELISA on coated recombinant HA; remark: listed apart in the source
[49] = target: H2 HA A/Singapore/1/1957, recombinant soluble trimer (influenza A virus); assay: ELISA on coated recombinant HA; remark: listed apart in the source
[50] = target: H12 HA A/duck/Alberta/60/1976, recombinant (influenza A virus); assay: ELISA on coated recombinant HA; remark: listed apart in the source
[51] = target: H3 HA A/Hong Kong/1/1968 (H3N2), recombinant soluble trimer (influenza A virus) (UniProt Q91MA7); assay: ELISA on coated recombinant HA
[52] = target: H12 HA A/duck/Alberta/60/1976, recombinant (influenza A virus); assay: ELISA
[53] = target: H15 HA A/shearwater/Western Australia/2576/1979, recombinant (influenza A virus); assay: ELISA
[54] = target: eHead_H1Solomon (wild-type H1 head domain monomer) (influenza A virus) (UniProt B4URD6); assay: SPR
[55] = target: eHead-H3HK68_v1 (wild-type H3 head domain monomer) (influenza A virus) (UniProt Q91MA7); assay: SPR

Substance rFluA-20 Fab has a Kd [1] of 2 nM, a Kd [2] of 3460 nM and a Kd [3] of 122 nM. The Kd [4] was 88 nM and the Kd [5] was 15 nM.
Work on “FluA-20 (hybridoma-produced IgG) (antibody)” yielded an EC50 [6] of 0.006 µg/mL, an EC50 [7] of 0.021 µg/mL and an EC50 [8] of 0.006 µg/mL. The EC50 [9] was 0.007 µg/mL, the EC50 [10] was 0.008 µg/mL and the EC50 [11] was 0.007 µg/mL. The EC50 [12] was 0.009 µg/mL, the EC50 [13] was 0.007 µg/mL and the EC50 [14] was 0.022 µg/mL. The EC50 [15] was 0.061 µg/mL, the EC50 [16] was 0.142 µg/mL and the EC50 [17] was 0.008 µg/mL. The EC50 [18] was 0.012 µg/mL, the EC50 [19] was 0.016 µg/mL and the EC50 [20] was 0.037 µg/mL. For the same substance, the EC50 [21] was 0.006 µg/mL, the EC50 [22] was 0.009 µg/mL and the EC50 [23] was 0.007 µg/mL. It also gave an EC50 [24] of 0.019 µg/mL, an EC50 [25] of 0.013 µg/mL and an EC50 [26] of 0.005 µg/mL. It also gave an EC50 [27] of 0.07 µg/mL, an EC50 [28] of 0.808 µg/mL and an EC50 [29] of 0.004 µg/mL. For the same substance, the EC50 [30] was greater than 10 µg/mL, the EC50 [31] was greater than 10 µg/mL and the EC50 [32] was 0.009 µg/mL. It also gave an EC50 [33] of 0.283 µg/mL, an EC50 [34] of 0.066 µg/mL and an EC50 [35] of 0.085 µg/mL. The EC50 [36] was 0.004 µg/mL, the EC50 [37] was 0.007 µg/mL and the NK cell activation (% of NK cells with IFN-γ and/or CD107a) at 0.1 µg/mL FluA-20 [38] was 1.3%. It also gave an NK cell activation (% of NK cells with IFN-γ and/or CD107a) at 1 µg/mL FluA-20 [38] of 9.2%, an NK cell activation (% of NK cells with IFN-γ and/or CD107a) at 10 µg/mL FluA-20 [38] of 14.6% and an EC50 [39] greater than 2.5 µg/mL. It also gave an EC50 [40] of 0.009 µg/mL, an EC50 [41] of 0.009 µg/mL and an EC50 [42] of 0.004 µg/mL. The EC50 [43] was 0.005 µg/mL, the EC50 [44] was 0.073 µg/mL and the EC50 [45] was 0.036 µg/mL. The EC50 [46] was 0.015 µg/mL, the EC50 [47] was 0.007 µg/mL and the EC50 [48] was 0.008 µg/mL. For the same substance, the EC50 [49] was 0.007 µg/mL.
MEDI-8852 (antibody) showed an EC50 [6] of 0.018 µg/mL, an EC50 [7] of 0.063 µg/mL and an EC50 [39] of 0.117 µg/mL. For the same substance, the EC50 [50] was 0.361 µg/mL, the EC50 [40] was 0.069 µg/mL and the EC50 [51] was 0.014 µg/mL. The EC50 [41] was 0.043 µg/mL, the EC50 [42] was 0.081 µg/mL and the EC50 [43] was 0.013 µg/mL. For the same substance, the EC50 [44] was 0.157 µg/mL, the EC50 [45] was 0.009 µg/mL and the EC50 [46] was 0.134 µg/mL. The EC50 [47] was 0.014 µg/mL, the EC50 [48] was 0.024 µg/mL and the EC50 [49] was 0.023 µg/mL.
In the case of “rFluA-20 IgG (recombinant FluA-20) (antibody)”, the EC50 [8] is reported as 0.006 µg/mL, the EC50 [9] is reported as 0.007 µg/mL and the EC50 [10] is reported as 0.008 µg/mL. The EC50 [11] was 0.007 µg/mL, the EC50 [12] was 0.008 µg/mL and the EC50 [13] was 0.007 µg/mL. It also gave an EC50 [14] of 0.016 µg/mL, an EC50 [15] of 0.063 µg/mL and an EC50 [16] of 0.133 µg/mL. It also gave an EC50 [17] of 0.009 µg/mL, an EC50 [18] of 0.013 µg/mL and an EC50 [19] of 0.016 µg/mL. The EC50 [20] was 0.041 µg/mL, the EC50 [21] was 0.007 µg/mL and the EC50 [22] was 0.011 µg/mL. The EC50 [23] was 0.007 µg/mL, the EC50 [52] was 0.006 µg/mL and the EC50 [25] was 0.007 µg/mL. It also gave an EC50 [26] of 0.008 µg/mL, an EC50 [53] of 0.007 µg/mL and an EC50 [29] of 0.008 µg/mL. It also gave an EC50 [32] of 0.007 µg/mL, an EC50 [34] of 0.013 µg/mL and an EC50 [35] of 0.016 µg/mL. For the same substance, the EC50 [36] was 0.007 µg/mL and the EC50 [37] was 0.011 µg/mL.
CH65 (antibody) was tested, and the Kd [54] was 340 nM.
For C05 (antibody), the Kd [54] was 86 nM and the Kd [55] was 170 nM.
